How the values were obtained:
Experiment in all cases: cleavage_in_vitro
[1] = tested on: T1, HpyF30I restriction endonuclease (Helicobacter pylori RFL30)
T1 sequence: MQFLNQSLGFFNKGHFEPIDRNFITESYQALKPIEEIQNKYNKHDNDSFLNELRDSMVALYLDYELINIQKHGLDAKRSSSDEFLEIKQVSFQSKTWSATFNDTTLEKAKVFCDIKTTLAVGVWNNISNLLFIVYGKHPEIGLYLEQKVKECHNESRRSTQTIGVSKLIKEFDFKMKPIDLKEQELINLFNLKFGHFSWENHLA

[2] = tested on: PaeR7I restriction endonuclease
[3] = biological target: T2, TaqI restriction endonuclease (Thermus aquaticus) (UniProt P14386); details: 65 C
T2 sequence: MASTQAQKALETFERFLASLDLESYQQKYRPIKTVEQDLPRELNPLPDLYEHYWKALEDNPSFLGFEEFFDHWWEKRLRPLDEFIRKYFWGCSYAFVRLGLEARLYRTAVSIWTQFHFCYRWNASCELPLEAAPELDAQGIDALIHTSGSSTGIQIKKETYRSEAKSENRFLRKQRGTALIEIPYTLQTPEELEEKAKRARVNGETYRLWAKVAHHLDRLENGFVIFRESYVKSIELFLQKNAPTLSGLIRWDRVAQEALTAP

[4] = about 50% 5mC at the TCGA site, partial, site about 50% methylated

Work on RASSFA1 promoter region yielded an activity [1, 4] of 50 % undigested, an activity [2, 4] of 50 % undigested and an activity ([3]; about 50% 5mC at the TCGA site, qPCR) of 0.8 % undigested.

130 bp lambda PCR fragment m5C gave an activity ([1]; 5mC in both strands, with Jurkat genomic DNA, SdaI buffer, 37 C) of 100 % undigested and an activity ([3]; 5mC in both strands, with Jurkat genomic DNA) of 0.7 % undigested.

lambda DNA (dam-) M.SssI methylated gave an activity ([1]; 5mC at CpG, both strands, SdaI buffer, 37 C, qPCR) of 100 % undigested and an activity ([3]; 5mC at CpG, both strands, TaqI buffer, qPCR) of 0.2 % undigested.

In the case of DAPK1 promoter region, the activity ([1]; SdaI buffer, 37 C, qPCR) is reported as 2 % undigested, the activity ([2]; buffer 4, 37 C, qPCR) is reported as 0.8 % undigested and the activity ([3]; qPCR) is reported as 0.7 % undigested.

130 bp lambda PCR fragment C gave an activity ([1]; with Jurkat genomic DNA, SdaI buffer, 37 C) of 7 % undigested and an activity ([3]; with Jurkat genomic DNA) of 0.7 % undigested.

With lambda DNA (dam-) the activity ([1]; SdaI buffer, 15 mM Mg acetate, 37 C, qPCR) was 0.6 % undigested and the activity ([3]; TaqI buffer, qPCR) was 0.06 % undigested.

Source: patent publication US20140011196
